Our source for the rate of ATP binding (MANT-ATP, stopped-flow) values is patent publication US20120045785A1.

Assay [1] concerns the target HtubA/B dimer (hybrid bacterial-bovine tubulin heterodimer) (Prosthecobacter dejongeii). Briefly: cell-based or functional assay.
A further assay deals with eukaryotic microtubules. Briefly: cell-based or functional assay.

HtubA/B dimer (hybrid bacterial-bovine tubulin heterodimer) (Prosthecobacter dejongeii), sequence (chain, as listed by the source, chain 1 of 2): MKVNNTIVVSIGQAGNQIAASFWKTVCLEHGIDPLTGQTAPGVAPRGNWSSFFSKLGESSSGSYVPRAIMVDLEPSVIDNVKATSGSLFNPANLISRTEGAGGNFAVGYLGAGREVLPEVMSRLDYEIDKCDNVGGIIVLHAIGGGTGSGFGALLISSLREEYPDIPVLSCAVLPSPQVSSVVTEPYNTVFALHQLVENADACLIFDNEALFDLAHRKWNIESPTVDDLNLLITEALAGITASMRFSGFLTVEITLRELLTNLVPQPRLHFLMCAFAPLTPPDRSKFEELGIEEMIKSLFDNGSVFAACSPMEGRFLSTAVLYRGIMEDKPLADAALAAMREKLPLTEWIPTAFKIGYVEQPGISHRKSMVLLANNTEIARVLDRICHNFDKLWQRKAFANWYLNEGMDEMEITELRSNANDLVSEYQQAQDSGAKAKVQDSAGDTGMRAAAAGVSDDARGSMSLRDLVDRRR
HtubA/B dimer (hybrid bacterial-bovine tubulin heterodimer) (Prosthecobacter dejongeii), sequence (chain, as listed by the source, chain 2 of 2): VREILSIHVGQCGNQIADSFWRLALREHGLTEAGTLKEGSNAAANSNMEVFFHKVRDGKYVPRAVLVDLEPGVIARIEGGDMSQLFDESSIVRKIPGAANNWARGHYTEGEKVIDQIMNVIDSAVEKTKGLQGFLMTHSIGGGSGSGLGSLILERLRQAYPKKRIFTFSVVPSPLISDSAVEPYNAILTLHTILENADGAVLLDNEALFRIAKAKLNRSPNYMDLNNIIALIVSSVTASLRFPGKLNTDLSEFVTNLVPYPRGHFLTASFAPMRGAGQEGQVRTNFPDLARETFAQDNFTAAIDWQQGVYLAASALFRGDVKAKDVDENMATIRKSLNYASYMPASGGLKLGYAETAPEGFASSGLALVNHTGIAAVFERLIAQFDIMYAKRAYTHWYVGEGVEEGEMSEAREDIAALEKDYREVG

As for Eg5 (a kinesin-5) motor domain (enzyme), the rate of ATP binding (MANT-ATP, stopped-flow) is 265 s⁻¹ in assay [1] and 25 to 30 s⁻¹ with eukaryotic microtubules.
